According to US20260217863A1 (UIF UNIVERSITY INDUSTRY FOUNDATION YONSEI UNIVERSITY, published 2026):

How the values were obtained:
[1] = molecular target: T1, Ribonuclease A (Type II-A) from bovine pancreas (bovine, UniProt P61823 27-150); experiment: cell-based or functional assay
T1 sequence (looked up): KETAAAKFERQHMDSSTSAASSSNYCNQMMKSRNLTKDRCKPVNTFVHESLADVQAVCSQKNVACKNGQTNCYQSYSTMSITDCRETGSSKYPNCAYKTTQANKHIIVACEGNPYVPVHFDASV

[2] = molecular target: RNase A contained in the actual serum sample; experiment: cell-based or functional assay
[3] = molecular target: RNase A contained in the pig swab actual sample (pig (sample: pig swab)); experiment: cell-based or functional assay
[4] = molecular target: RNase A contained in the saliva swab actual sample; experiment: cell-based or functional assay
[5] = molecular target: T1, Ribonuclease A (Type II-A) from bovine …; experiment: SPR biosensor, RNase A immobilized on the Au chip, peptide in solution
Experimental: (§1) Binding analysis of the expressed FV antibody and synthesized peptides against RNase A was performed using an SPR (Surface Plasmon Resonance) biosensor from I-Cluebio (Seongnam, Korea). RNase A was immobilized on the gold surface of the SPR chip used in the SPR biosensor to conduct the binding analysis. For the manufacture of the SPR chip, a 2 nm thick titanium adhesive layer and a 48 nm thick gold surface were consecutively sputter-coated onto BK-7 glass (1×1 cm²). […] To analyze the binding of the expressed Fv antibody to RNase A, Fv antibodies in the concentration range of 0.37-100 nM were reacted using PBS buffer as the […] through association (10 minutes), equilibrium (5 minutes), and dissociation (10 minutes) steps. The washing buffer and total SPR measurements were performed at a flow rate of 15 μL/min. For the binding analysis of the synthesized peptides against RNase A, peptides in the concentration range of 0.37-100 nM were reacted using PBS buffer as the washing buffer through association (10 minutes), equilibrium (5 minutes), and dissociation (10 minutes) steps, and total SPR measurements were conducted at a flow rate of 15 μL/min.
Using the screened CDR3 amino acid sequences, the CDR3 regions of the screened Fv antibodies were synthesized as peptides, and the amino acid sequences were determined from the nucleotide sequences of the CDR3 regions as summarized in Table 7. These synthetic peptides (Peptide-1, Peptide-2, Peptide-3) and Fv antibodies (Fv-1, Fv-2, Fv-3) were identical to the amino acid sequences of the CDR3 regions of the screened clones. The expression of the Fv antibodies was confirmed using SDS-PAGE, and the molecular weight of the Fv antibodies was estimated to be 69.2 kDa as shown in FIG. 9. The affinity constant (KD) of the synthetic peptides and the expressed Fv antibodies against RNase A was estimated using an SPR biosensor.

[6] = molecular target: T1, Ribonuclease A (Type II-A) from bovine …; experiment: SPR, RNase A immobilized on the Au chip, fit of SPR signal against peptide concentration. The label is unnamed: it is printed in the light grey of the Peptide-1 marker at the top end of that curve, and agrees with the 1.3 ± 0.1 µM of the text.
Experimental: RNase A was immobilized on the gold surface of the SPR chip used in the SPR biosensor to conduct the binding analysis. For the manufacture of the SPR chip, a 2 nm thick titanium adhesive layer and a 48 nm thick gold surface were consecutively sputter-coated onto BK-7 glass (1×1 cm²). […] To analyze the binding of the expressed Fv antibody to RNase A, Fv antibodies in the concentration range of 0.37-100 nM were reacted using PBS buffer as the […] through association (10 minutes), equilibrium (5 minutes), and dissociation (10 minutes) steps. The washing buffer and total SPR measurements were performed at a flow rate of 15 μL/min. […]
Using the screened CDR3 amino acid sequences, the CDR3 regions of the screened Fv antibodies were synthesized as peptides, and the amino acid sequences were determined from the nucleotide sequences of the CDR3 regions as summarized in Table 7. […] The SPR signal was plotted according to the concentration of the synthetic peptides, and the affinity constants (KD) of these synthetic peptides were calculated through a fitting process.

[7] = molecular target: T1, Ribonuclease A (Type II-A) from bovine …; experiment: SPR biosensor, RNase A immobilized on the Au chip, expressed Fv antibody in solution
Experimental: as §1
Using the screened CDR3 amino acid sequences, the CDR3 regions of the screened Fv antibodies were synthesized as peptides, and the amino acid sequences were determined from the nucleotide sequences of the CDR3 regions as summarized in Table 2. These synthetic peptides (Peptide-1, Peptide-2, Peptide-3) and Fv antibodies (Fv-1, Fv-2, Fv-3) were identical to the amino acid sequences of the CDR3 regions of the screened clones. The expression of the Fv antibodies was confirmed using SDS-PAGE, and the molecular weight of the Fv antibodies was estimated to be 69.2 kDa as shown in FIG. 9. The affinity constants (KD) of these synthetic peptides and the expressed Fv antibodies against RNase A were estimated using an SPR biosensor.

[8] = molecular target: T1, Ribonuclease A (Type II-A) from bovine …; experiment: cell-based or functional assay; remark: listed apart in the source

Which “IC50, cCMP assay (hydrolysis of 2',3'-cyclic CMP, absorbance at 286 nM)” value (from here on “IC50, cCMP assay”) [1] does the source give for DGTAKKSRKDD (also called peptides-3) [Peptide-3, synthetic peptide with the CDR3 sequence of the screened clone] here?
Its value is 356 nM.

And the “IC50 by linear regression, RNA probe assay” value [1]?
Its value is 400 nM.

And the “IC50 for the inhibition of RNase A activity, HeLa total RNA cleavage, agarose gel image” value [1]?
Its value is 464 nM.

What about the “peptide concentration at which the RNase inhibition activity is over 50%, HeLa total RNA cleavage, agarose gel” value [1] of the same binder?
The value was over 1 µM.

And the “relative inhibition level after 60 minutes, RNA probe assay (fluorophore and quencher), peptide at 1 µM” value [1]?
Its value is 50.3%.

What about the “decrease of RNase A activity after approximately 27 minutes, cCMP assay, serum actual sample, 1 µM inhibitor” value (shortened to “decrease … serum actual sample, 1 µM inhibitor”) [2] of the same binder?
The value was about 60%.

What about the “decrease of RNase A activity after approximately 27 minutes, cCMP assay, pig swab actual sample, 1 µM inhibitor” value [3] of the same binder?
The value was about 41%.

What about the “decrease of RNase A activity after approximately 27 minutes, cCMP assay, saliva swab actual sample, 1 µM inhibitor” value [4] of the same binder?
Its value is about 35%.

What about the Kd [5] of the same binder?
The Kd was 3700 nM.

B1: Peptide-1, synthetic peptide with the CDR3 sequence of the screened clone (peptide)
peptide: CGPDSDVMTDF
notes: Bought from Peptron, 90% purity; Peptide-1 is tied to the CDR3 of clone 5 / Fv-1 by the order of the names only; also called peptides-1
What does the source list for B1?
IC50, cCMP assay (hydrolysis of 2',3'-cyclic CMP, absorbance at 286 nM) [1]: 607 nM; IC50 by linear regression, RNA probe assay [1]: 8100 nM; IC50 for the inhibition of RNase A activity, HeLa total RNA cleavage, agarose gel image [1]: 995 nM; peptide concentration at which the RNase inhibition activity is over 50%, HeLa total RNA cleavage, agarose gel [1]: > 1 µM; relative inhibition level after 60 minutes, RNA probe assay (fluorophore and quencher), peptide at 1 µM [1]: 54.4%; decrease of RNase A activity after approximately 27 minutes, cCMP assay, serum actual sample, 1 µM inhibitor [2]: ~53%; decrease of RNase A activity after approximately 27 minutes, cCMP assay, pig swab actual sample, 1 µM inhibitor [3]: ~41%; decrease of RNase A activity after approximately 27 minutes, cCMP assay, saliva swab actual sample, 1 µM inhibitor [4]: ~30%; Kd [5]: 1300 nM; Kd [6]: 1350 nM

B2: Fv-1, expressed soluble Fv antibody of clone 5 (His-tag-TdTomato-VH) (other)
chain: EVQLVESAAEVRRPGASVKITCKASGYSFSTYGIQWMRQAPGQRPEWLGWIHAGTGGTKYSRKFQGRITITRDTSANTVYLDLNSLTSEDTAVYYCARCGPDSDVMTDFWGQGTTVTVSS
notes: Fusion protein made in E. coli from a recombinant plasmid (pJS001 to pJS003, not tied one by one); molecular weight estimated 69.2 kDa; No light chain; also called expressed Fv antibody; TdTomato-labeled Fv antibody; not shown: His-tag; TdTomato fluorescent protein
For B2, which “Fv-antibody concentration at which the RNase inhibitory activity is over 50%, HeLa total RNA cleavage, agarose gel” value [1] is on record?
The value was at least 350 nM.

And the “IC50, RNase activity analysis with the RNA probe” value [1]?
The value was 90.2 nM.

What about the “IC50, cCMP assay” value [1] of the same binder?
The value was 194 nM.

And the “IC50 for RNase A activity inhibition, HeLa total RNA cleavage, agarose gel image, dose-response curve fitting” value [1]?
The value was 234 nM.

And the “decrease … serum actual sample, 1 µM inhibitor” value [2]?
Its value is about 55%.

What about the “decrease of RNase A activity after approximately 27 minutes, cCMP assay, pig swab actual sample, 1 µM inhibitor” value [3] of the same binder?
Its value is about 61%.

What about the “decrease of RNase A activity after approximately 27 minutes, cCMP assay, saliva swab actual sample, 1 µM inhibitor” value [4] of the same binder?
The value was about 42%.

And the Kd [7]?
Its Kd is 17.5 nM.

B3: Fv-2, expressed soluble Fv antibody of clone 23 (His-tag-TdTomato-VH) (other)
chain: EVQLVESAAEVRRPGASVKITCKASGYSFSTYGIQWMRQAPGQRPEWLGWIHAGTGGTKYSRKFQGRITITRDTSANTVYLDLNSLTSEDTAVYYCARYGPVGRVKRDDWGQGTTVTVSS
notes: Fusion protein made in E. coli; 69.2 kDa; No light chain; not shown: His-tag; TdTomato fluorescent protein
How did the “Fv-antibody concentration at which the RNase inhibitory activity is over 50%, HeLa total RNA cleavage, agarose gel” value [1] turn out when B3 was run?
Its value is at least 350 nM.

What about the “IC50, RNase activity analysis with the RNA probe” value [1] of the same binder?
The value was 65.3 nM.

What about the “IC50, cCMP assay” value [1] of the same binder?
Its value is 236 nM.

And the “IC50 for RNase A activity inhibition, HeLa total RNA cleavage, agarose gel image, dose-response curve fitting” value [1]?
The value was 366 nM.

And the “decrease … serum actual sample, 1 µM inhibitor” value [2]?
Its value is about 55%.

What about the “decrease of RNase A activity after approximately 27 minutes, cCMP assay, pig swab actual sample, 1 µM inhibitor” value [3] of the same binder?
Its value is about 49%.

And the “decrease of RNase A activity after approximately 27 minutes, cCMP assay, saliva swab actual sample, 1 µM inhibitor” value [4]?
The value was about 63%.

And the Kd [7]?
Its Kd is 28.8 nM.

B4: Fv-3, expressed soluble Fv antibody of clone 39 (His-tag-TdTomato-VH) (other)
chain: EVQLVESAAEVRRPGASVKITCKASGYSFSTYGIQWMRQAPGQRPEWLGWIHAGTGGTKYSRKFQGRITITRDTSANTVYLDLNSLTSEDTAVYYCARDGTAKKSRKDDWGQGTTVTVSS
notes: as for B3
What does the source list for B4?
Fv-antibody concentration at which the RNase inhibitory activity is over 50%, HeLa total RNA cleavage, agarose gel [1]: ≥ 350 nM; IC50, RNase activity analysis with the RNA probe [1]: 98.8 nM; IC50, cCMP assay (hydrolysis of 2',3'-cyclic CMP, absorbance at 286 nM) [1]: 196 nM; IC50 for RNase A activity inhibition, HeLa total RNA cleavage, agarose gel image, dose-response curve fitting [1]: 436 nM; decrease of RNase A activity after approximately 27 minutes, cCMP assay, serum actual sample, 1 µM inhibitor [2]: ~52%; decrease of RNase A activity after approximately 27 minutes, cCMP assay, pig swab actual sample, 1 µM inhibitor [3]: ~55%; decrease of RNase A activity after approximately 27 minutes, cCMP assay, saliva swab actual sample, 1 µM inhibitor [4]: ~60%; IC50 (RNase A activity after treatment with Fv-3 beads, 1/10 diluted Pig Swab, RNase A 10 ng, RNA gel) [8]: 632 nM; IC50 (RNase A activity after treatment with Fv-3 beads, 1/10 diluted Saliva Swab, RNase A 10 ng, RNA gel) [8]: 838 nM; IC50 (RNase A activity after treatment with Fv-3 beads, 1/10 diluted Serum, RNase A 10 ng, RNA gel) [8]: 1010 nM; Kd [7]: 33.9 nM

Which results are given for YGPVGRVKRDD (also called peptides-2) [Peptide-2, synthetic peptide with the CDR3 sequence of the screened clone]?
IC50, cCMP assay (hydrolysis of 2',3'-cyclic CMP, absorbance at 286 nM) [1]: 373 nM; IC50 by linear regression, RNA probe assay [1]: 3600 nM; IC50 for the inhibition of RNase A activity, HeLa total RNA cleavage, agarose gel image [1]: 658 nM; peptide concentration at which the RNase inhibition activity is over 50%, HeLa total RNA cleavage, agarose gel [1]: > 1 µM; relative inhibition level after 60 minutes, RNA probe assay (fluorophore and quencher), peptide at 1 µM [1]: 53.2%; decrease of RNase A activity after approximately 27 minutes, cCMP assay, serum actual sample, 1 µM inhibitor [2]: ~55%; decrease of RNase A activity after approximately 27 minutes, cCMP assay, pig swab actual sample, 1 µM inhibitor [3]: ~41%; decrease of RNase A activity after approximately 27 minutes, cCMP assay, saliva swab actual sample, 1 µM inhibitor [4]: ~44%; Kd [5]: 1300 nM
